Assay results from patent US7053177B1, “Random peptides that bind to gastro-intestinal tract (GIT) transport receptors and related methods” (Cytogen Corporation, priority 1997, dated 2006).
Ends that are not written are not given here. Peptide text beside a SMILES is read from it. * marks the point of attachment. Dansyl = CN(C)c1cccc2c(S(=O)(=O)*)cccc12

How the values were obtained:
[1] = system: P100 membrane fraction of Caco-2 cells; experiment: Dansylated peptide ELISA: relative binding of PAX2 and HAX42 peptides to P100 fractions (ratio to ZElan021); settings: ratio to ZElan021 = 1.00
Procedure: The peptides and proteins were analyzed by a dansylated peptide ELISA method in which 96 well plates were coated overnight at 4° C. with 100 μl/well coating protein (normally 100 μg/ml P100 membrane fraction) in 0.05M carbonate buffer pH9.6. Nonspecific binding was blocked using 200 μl/well, 2% Marvel/PBS for 2 hours at 37° C. prior to incubation with dansylated peptides. The plates were washed three times with PBS/0.05% Tween 20 and after each subsequent incubation step. […] A buffer blank control was included to ensure that background binding to plastic was not due to the antibodies used in the assay system. […] Plates were developed using 75 μl/well Bionostics TMB substrate and incubated for approximately 10 minutes. The developing reaction was stopped using Bionostics Red Stop solution (25 μl/well), and the optical density of the plates was read at 650 nm. […]

[2] = target: bovine serum albumin (bovine) (UniProt P02769); experiment: phage ELISA on coated BSA
[3] = PAX2 peptides, 50 μg/ml, first column
[4] = PAX2 peptides, 50 μg/ml, second column

Sequence of bovine serum albumin (bovine) (P02769 25-607 limits assumed): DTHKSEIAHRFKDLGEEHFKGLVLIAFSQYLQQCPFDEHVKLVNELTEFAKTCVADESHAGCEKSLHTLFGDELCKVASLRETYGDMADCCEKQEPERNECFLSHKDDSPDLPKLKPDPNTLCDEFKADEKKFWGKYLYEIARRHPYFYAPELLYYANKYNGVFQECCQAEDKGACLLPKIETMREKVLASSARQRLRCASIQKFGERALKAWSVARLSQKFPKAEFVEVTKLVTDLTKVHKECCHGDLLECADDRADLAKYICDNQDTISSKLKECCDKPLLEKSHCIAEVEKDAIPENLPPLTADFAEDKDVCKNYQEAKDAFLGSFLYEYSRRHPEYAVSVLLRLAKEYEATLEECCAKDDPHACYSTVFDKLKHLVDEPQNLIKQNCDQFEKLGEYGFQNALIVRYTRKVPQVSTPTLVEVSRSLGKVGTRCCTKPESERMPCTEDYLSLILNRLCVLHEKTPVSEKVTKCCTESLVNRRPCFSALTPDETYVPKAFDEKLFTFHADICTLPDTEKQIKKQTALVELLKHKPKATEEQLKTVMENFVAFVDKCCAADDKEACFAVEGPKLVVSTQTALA

Molecule | OD [2] | other results
CC(C)C[C@H](NC(=O)[C@H](CCCNC(=N)N)NC(=O)[C@H](CCCNC(=N)N)NC(=O)[C@H](CC(N)=O)NC(=O)[C@H](Cc1c[nH]cn1)NC(=O)[C@H](CO)NC(=O)[C@H](CO)NC(=O)[C@@H](N)CCCCNS(=O)(=O)c1cccc2c(N(C)C)cccc12)C(=O)N[C@@H](C)C(=O)N[C@H](C(=O)N[C@@H](CCCNC(=N)N)C(N)=O)[C@@H](C)O [ZElan080] (H-K(Dansyl)SSHNRRLATR-NH2) | – | Binding value at 20 μg/ml ([1]; PAX2 peptides, first column): 0.23; Binding value at 50 μg/ml (Jackson Ab) ([1]; PAX2 peptides, 50 μg/ml, Jackson Ab): 0.67; Binding value at 50 μg/ml (Southern Ab) ([1]; PAX2 peptides, 50 μg/ml, Southern Ab): 0.38; Binding value at 50 μg/ml [1, 3]: 0.84; Binding value at 50 μg/ml [1, 4]: 0.45
CN(C)c1cccc2c(S(=O)(=O)NCCCC[C@H](N)C(=O)N[C@@H](CC(N)=O)C(=O)N[C@@H](CCCNC(=N)N)C(=O)N[C@@H](CCCNC(=N)N)C(=O)N[C@@H](CCCNC(=N)N)C(=O)N3CCC[C@H]3C(=O)N[C@@H](CO)C(N)=O)cccc12 [ZElan067, H2N-K(dns)NRRRPS-CONH2] (H-K(Dansyl)NRRRPS-NH2) | – | Binding value at 20 μg/ml ([1]; HAX42 peptides): 0.08; Binding value at 50 μg/ml ([1]; HAX42 peptides, 50 μg/ml, first column): 0.52; Binding value at 50 μg/ml ([1]; HAX42 peptides, 50 μg/ml, second column): 0.40
CC(C)C[C@H](NC(=O)[C@H](CCCNC(=N)N)NC(=O)[C@H](CCCNC(=N)N)NC(=O)[C@H](CC(N)=O)NC(=O)[C@H](Cc1c[nH]cn1)NC(=O)[C@H](CO)NC(=O)[C@H](CO)NC(=O)[C@H](Cc1c[nH]cn1)NC(=O)[C@H](CCCCN)NC(=O)[C@H](C)NC(=O)[C@H](CC(N)=O)NC(=O)[C@@H](NC(=O)[C@@H](N)CCCCNS(=O)(=O)c1cccc2c(N(C)C)cccc12)[C@@H](C)O)C(=O)N[C@@H](CCCNC(=N)N)C(=O)N[C@H](C(=O)N[C@@H](CCCNC(=N)N)C(N)=O)[C@@H](C)O [ZElan033] (H-K(Dansyl)TNAKHSSHNRRLRTR-NH2) | – | Binding value at 20 μg/ml ([1]; PAX2 peptides, first column): 0.35; Binding value at 50 μg/ml [1, 3]: 0.80; Binding value at 50 μg/ml [1, 4]: 0.66
RMEDIKNSGWRDSCRWGDLRPGCGSRQWYPSNMRSSRDYPAGGH [phage DAX24] | 0.118 OD 650 nm | –
SGRTTSEISGLWGWGDDRSGYGWGNTLRPNYIPYRQATNRHRYT [phage DCX26] | 0.213 OD 650 nm | –
SKSGEGGDSSRGETGWARVRSHAMTAGRFRWYNQLPSDR [phage DAB10] | 0.153 OD 650 nm | –
RWCGAELCNSVTKKFRPGWRDHANPSTHHRTPPPSQSSP [phage DAB3] | 0.072 OD 650 nm | –
RWCGADDPCGASRWRGGNSLFGCGLRCSAAQSTPSGRIHSTSTS [phage DAB7] | 0.09 OD 650 nm | –
SWTRWGKHTHGGFVNKSPPGKNATSPYTDAQLPSDQGPP (peptide, not shown: large carriers) [phage PAX16] | 0.171 OD 650 nm | –
RVGQCTDSDVRRPWARSCAHQGCGAGTRNSHGCITRPLRQASAH [phage SNi10] | 0.051 OD 650 nm | –
SESGRCRSVSRWMTTWQTQKGGCGSNVSRGSPLDPSHQTGHATT [phage DAX15] | 0.101 OD 650 nm | –
SSSSDWGGVPGKVVRERFKGRGCGISITSVLTGKPNPCPEPKAA [phage S22] | 0.061 OD 650 nm | –
SGGEVSSWGRVNDLCARVSWTGCGTARSARTDNKGFLPKHSSLR [phage SNi45] | 0.056 OD 650 nm | –
RTFENDGLGVGRSIQKKSDRWYASHNIRSHFASMSPAGK (peptide, not shown: large carriers) [phage PAX14] | 0.139 OD 650 nm | –
SPCGGSWGRFMQGGLFGGRTDGCGAHRNRTSASLEPPSSDY [phage SNi34] | 0.115 OD 650 nm | –
RSSANNCEWKSDWMRRACIARYANSSGPARAVDTKAAP [phage DAB18] | 0.085 OD 650 nm | –
SVGNDKTSRPVSFYGRVSDLWNASLMPKRTPSSKRHDDG [phage DCX45] | 0.075 OD 650 nm | –
SGFWEFSRGLWDGENRKSVRSGCGFRGSSAQGPCPVTPATIDKH [phage DAB30] | 0.121 OD 650 nm | –
REWRFAGPPLDLWAGPSLPSFNASSHPRALRTYWSQRPR [phage DAX23] | 0.153 OD 650 nm | –
RGAADQRRGWSENLGLPRVGWDAIAHNSYTFTSRRPRPP [phage SNi38] | 0.076 OD 650 nm | –
RWNWTVLPATGGHYWTRSTDYHAINNHRPSIPHQHPTPI [phage DCX33] | 0.103 OD 650 nm | –
SHSGGMNRAYGDVFRELRDRWNATSHHTRPTPQLPRGPN [phage SNi28] | 0.113 OD 650 nm | –
SHPWYRHWNHGDFSGSGQSRHTPPESPHPGRPNATI [phage DAX27] | 0.424 OD 650 nm | –
RSGAYESPDGRGGRSYVGGGGGCGNIGRKHNLWGLRTASPACWD [phage S15] | 0.053 OD 650 nm | –
SKWSWSSRWGSPQDKVEKTRAGCGGSPSSTNCHPYTFAPPPQAG [phage DAB24] | 0.441 OD 650 nm | –
SDSDGDHYGLRGGVRCSLRDRGCGLALSTVHAGPPSFYPKLSSP (cysteine pairing not given here; also: displayed as N-terminal pIII fusion on M13 phage) [phage SNiAX2] | 0.065 OD 650 nm | –
SPKLSSVGVMTKVTELPTEGPNAISIPISATLGPRNPLR (also: displayed as N-terminal pIII fusion on M13 phage) [phage SNiAX8] | 0.068 OD 650 nm | –
RTTTAKGCLLGSFGVLSGCSFTPTSPPPHLGYPPHSVN (cysteine pairing not given here; also: displayed as N-terminal pIII fusion on M13 phage) [phage SNiAX6] | 0.056 OD 650 nm | –
